Columns and labels:
HeLa Kyoto [1] = assay: solubility change mitosis vs G1/S (difference of NP-40 vs SDS log2 ratios) (log2 ratio difference); higher = more soluble in mitosis
HeLa Kyoto [2] = assay: solubility in G1/S (NP-40 vs SDS abundance) (log2 ratio); higher = more soluble; conditions: cell cycle stage: G1/S
HeLa Kyoto [3] = assay: thermal stability score vs G1/S (z-score of summed log2 fold changes over temperatures); higher = more thermally stable than in G1/S
HeLa Kyoto [4] = assay: melting temperature (median over replicates), in situ; higher = more thermally stable
[5] = cell cycle stage: early G1 (4.5 h after nocodazole release)
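Throughout, for melting temperature (median over replicates), in situ: HeLa Kyoto cells synchronized by double thymidine or nocodazole block, proteins quantified by TMT10plex mass spectrometry, three independent biological replicates.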
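Throughout, for solubility change mitosis vs G1/S (difference of NP-40 vs SDS log2 ratios): synchronized HeLa Kyoto cells (double thymidine block for G1/S, nocodazole release for mitosis), protein amounts in NP-40 versus SDS lysates quantified by mass spectrometry, three biological replicates.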
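Throughout, for solubility in G1/S (NP-40 vs SDS abundance): HeLa Kyoto cells arrested at G1/S by double thymidine block, proteins quantified by TMT10plex mass spectrometry in mild NP-40 versus SDS extracts, three biological replicates.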
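Throughout, for thermal stability score vs G1/S (z-score of summed log2 fold changes over temperatures): synchronized HeLa Kyoto cells, proteins quantified by TMT10plex mass spectrometry, three biological replicates, mitosis taken 0.5 h after nocodazole release, G1/S directly after double thymidine block.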

| Sequence | solubility change mitosis (log2) (HeLa Kyoto [1]) | solubility in G1/S (log2) (HeLa Kyoto [2]) | thermal stability score (HeLa Kyoto [3]; [5]) | thermal stability score (HeLa Kyoto [3]; cell cycle stage: mitosis) | melting temperature (HeLa Kyoto [4]; cell cycle stage: G1/S) [°C] | melting temperature (HeLa Kyoto [4]; cell cycle stage: mitosis) [°C] |
| --- | --- | --- | --- | --- | --- | --- |
| MPPKVTSELLRQLRQAMRNSEYVTEPIQAYIIPSGDAHQSEYIAPCDCRRAFVSGFDGSAGTAIITEEHAAMWTDGRYFLQAAKQMDSNWTLMKMGLKDTPTQEDWLVSVLPEGSRVGVDPLIIPTDYWKKMAKVLRSAGHHLIPVKENLVDKIWTDRPERPCKPLLTLGLDYTGISWKDKVADLRLKMAERNVMWFVVTALDEIAWLFNLRGSDVEHNPVFFSYAIIGLETIMLFIDGDRIDAPSVKEHLLLDLGLEAEYRIQVHPYKSILSELKALCADLSPREKVWVSDKASYAVSETIPKDHRCCMPYTPICIAKAVKNSAESEGMRRAHIKDAVALCELFNWLEKEVPKGGVTEISAADKAEEFRRQQADFVDLSFPTISSTGPNGAIIHYAPVPETNRTLSLDEVYLIDSGAQYKDGTTDVTRTMHFGTPTAYEKECFTYVLKGHIAVSAAVFPTGTKGHLLDSFARSALWDSGLDYLHGTGHGVGSFLNVHEGPCGISYKTFSDEPLEAGMIVTDEPGYYEDGAFGIRIENVVLVVPVKTKYNFNNRGSLTFEPLTLVPIQTKMIDVDSLTDKECDWLNNYHLTCRDVIGKELQKQGRQEALEWLIRETQPISKQH [XPNPEP1] | -0.14 | 0.105 | -1 | -3.97 | 53 | 51.9 |
| MSENSSDSDSSCGWTVISHEGSDIEMLNSVTPTDSCEPAPECSSLEQEELQALQIEQGESSQNGTVLMEETAYPALEETSSTIEAEEQKIPEDSIYIGTASDDSDIVTLEPPKLEEIGNQEVVIVEEAQSSEDFNMGSSSSSQYTFCQPETVFSSQPSDDESSSDETSNQPSPAFRRRRARKKTVSASESEDRLVAEQETEPSKELSKRQFSSGLNKCVILALVIAISMGFGHFYGTIQIQKRQQLVRKIHEDELNDMKDYLSQCQQEQESFIDYKSLKENLARCWTLTEAEKMSFETQKTNLATENQYLRVSLEKEEKALSSLQEELNKLREQIRILEDKGTSTELVKENQKLKQHLEEEKQKKHSFLSQRETLLTEAKMLKRELERERLVTTALRGELQQLSGSQLHGKSDSPNVYTEKKEIAILRERLTELERKLTFEQQRSDLWERLYVEAKDQNGKQGTDGKKKGGRGSHRAKNKSKETFLGSVKETFDAMKNSTKEFVRHHKEKIKQAKEAVKENLKKFSDSVKSTFRHFKDTTKNIFDEKGNKRFGATKEAAEKPRTVFSDYLHPQYKAPTENHHNRGPTMQNDGRKEKPVHFKEFRKNTNSKKCSPGHDCRENSHSFRKACSGVFDCAQQESMSLFNTVVNPIRMDEFRQIIQRYMLKELDTFCHWNELDQFINKFFLNGVFIHDQKLFTDFVNDVKDYLRNMKEYEVDNDGVFEKLDEYIYRHFFGHTFSPPYGPRSVYIKPCHYSSL [CCPG1] | -0.0492 | -0.321 | 1.39 | 2.71 | 53.6 | 53.6 |
| MAARRGALIVLEGVDRAGKSTQSRKLVEALCAAGHRAELLRFPERSTEIGKLLSSYLQKKSDVEDHSVHLLFSANRWEQVPLIKEKLSQGVTLVVDRYAFSGVAFTGAKENFSLDWCKQPDVGLPKPDLVLFLQLQLADAAKRGAFGHERYENGAFQERALRCFHQLMKDTTLNWKMVDASKSIEAVHEDIRVLSEDAIRTATEKPLGELWK [DTYMK] | 0.00796 | -0.0236 | -8.56 | -6.57 | 56.9 | 54.4 |
| MTPPRLFWVWLLVAGTQGVNDGDMRLADGGATNQGRVEIFYRGQWGTVCDNLWDLTDASVVCRALGFENATQALGRAAFGQGSGPIMLDEVQCTGTEASLADCKSLGWLKSNCRHERDAGVVCTNETRSTHTLDLSRELSEALGQIFDSQRGCDLSISVNVQGEDALGFCGHTVILTANLEAQALWKEPGSNVTMSVDAECVPMVRDLLRYFYSRRIDITLSSVKCFHKLASAYGARQLQGYCASLFAILLPQDPSFQMPLDLYAYAVATGDALLEKLCLQFLAWNFEALTQAEAWPSVPTDLLQLLLPRSDLAVPSELALLKAVDTWSWGERASHEEVEGLVEKIRFPMMLPEELFELQFNLSLYWSHEALFQKKTLQALEFHTVPFQLLARYKGLNLTEDTYKPRIYTSPTWSAFVTDSSWSARKSQLVYQSRRGPLVKYSSDYFQAPSDYRYYPYQSFQTPQHPSFLFQDKRVSWSLVYLPTIQSCWNYGFSCSSDELPVLGLTKSGGSDRTIAYENKALMLCEGLFVADVTDFEGWKAAIPSALDTNSSKSTSSFPCPAGHFNGFRTVIRPFYLTNSSGVD [LGALS3BP] | -0.127 | -0.0572 | 1.36 | 2.15 | 54.5 | 55.9 |

Source: the supplement of paper PMC5998384
